Key:
[1] = tested on: indicator molecule containing the cleavable sequence (GPQGIFGQ) with a terminal biotin group connected via a polyethylene glycol spacer/linker, intact
[2] = tested on: fluorescence resonance energy transfer (FRET) peptide of the commercial MMP-9 activity assay kit

Chain of active MMP-9 (Alere San Diego) (chain, as listed by the source): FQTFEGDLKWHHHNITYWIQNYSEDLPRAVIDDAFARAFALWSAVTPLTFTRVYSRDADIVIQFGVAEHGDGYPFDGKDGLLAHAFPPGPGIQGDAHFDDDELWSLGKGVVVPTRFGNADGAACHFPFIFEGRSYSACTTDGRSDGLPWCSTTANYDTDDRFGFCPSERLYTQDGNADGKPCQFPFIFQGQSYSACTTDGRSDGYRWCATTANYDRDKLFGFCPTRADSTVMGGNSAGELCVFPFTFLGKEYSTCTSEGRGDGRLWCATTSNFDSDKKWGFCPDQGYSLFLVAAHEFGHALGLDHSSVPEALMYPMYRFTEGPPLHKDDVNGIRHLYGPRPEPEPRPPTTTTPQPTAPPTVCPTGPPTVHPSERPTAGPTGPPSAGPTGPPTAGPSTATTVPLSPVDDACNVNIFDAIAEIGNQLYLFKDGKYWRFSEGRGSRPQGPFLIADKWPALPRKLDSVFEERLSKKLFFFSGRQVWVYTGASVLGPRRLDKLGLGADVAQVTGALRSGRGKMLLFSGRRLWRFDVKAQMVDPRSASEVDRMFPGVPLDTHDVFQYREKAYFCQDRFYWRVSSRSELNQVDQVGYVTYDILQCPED
Chain of MMP3 (Enzo) (chain, as listed by the source): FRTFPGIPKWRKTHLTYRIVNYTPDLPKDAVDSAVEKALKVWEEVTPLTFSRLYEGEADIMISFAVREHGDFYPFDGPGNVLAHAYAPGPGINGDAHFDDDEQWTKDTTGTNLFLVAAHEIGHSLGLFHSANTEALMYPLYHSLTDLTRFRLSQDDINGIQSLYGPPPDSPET
Chain of MMP2 (Enzo) (chain, as listed by the source): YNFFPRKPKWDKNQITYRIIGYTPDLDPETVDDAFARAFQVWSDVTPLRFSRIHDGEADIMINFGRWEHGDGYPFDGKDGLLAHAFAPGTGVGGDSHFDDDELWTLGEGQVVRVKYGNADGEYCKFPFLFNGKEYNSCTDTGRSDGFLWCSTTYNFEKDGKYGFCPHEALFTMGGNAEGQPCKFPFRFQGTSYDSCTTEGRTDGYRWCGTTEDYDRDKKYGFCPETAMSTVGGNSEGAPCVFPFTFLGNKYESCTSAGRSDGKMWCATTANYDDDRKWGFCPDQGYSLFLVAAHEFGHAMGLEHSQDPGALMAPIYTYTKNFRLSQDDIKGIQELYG
Chain of MMP8 (Enzo) (chain, as listed by the source): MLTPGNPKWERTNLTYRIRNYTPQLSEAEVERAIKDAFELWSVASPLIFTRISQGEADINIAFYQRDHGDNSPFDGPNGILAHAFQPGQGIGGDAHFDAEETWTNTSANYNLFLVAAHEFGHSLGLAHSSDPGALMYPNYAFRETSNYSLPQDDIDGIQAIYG
Chain of MMP10 (Enzo) (chain, as listed by the source): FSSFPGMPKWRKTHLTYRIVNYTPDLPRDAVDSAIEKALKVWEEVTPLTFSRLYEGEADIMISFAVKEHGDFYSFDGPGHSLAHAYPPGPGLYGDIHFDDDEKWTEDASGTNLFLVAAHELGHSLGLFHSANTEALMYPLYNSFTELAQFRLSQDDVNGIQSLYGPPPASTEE
Chain of MMP9 (Enzo) (chain, as listed by the source): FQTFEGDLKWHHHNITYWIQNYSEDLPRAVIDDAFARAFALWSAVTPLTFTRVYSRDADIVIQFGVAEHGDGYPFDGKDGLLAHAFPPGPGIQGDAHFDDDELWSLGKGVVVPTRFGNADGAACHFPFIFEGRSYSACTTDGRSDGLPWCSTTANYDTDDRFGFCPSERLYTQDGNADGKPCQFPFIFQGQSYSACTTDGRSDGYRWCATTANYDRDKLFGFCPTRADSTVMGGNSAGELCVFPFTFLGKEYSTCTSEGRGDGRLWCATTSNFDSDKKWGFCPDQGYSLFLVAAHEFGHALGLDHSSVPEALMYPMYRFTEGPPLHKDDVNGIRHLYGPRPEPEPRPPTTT

MMP2 (Enzo)
reader value at 0.5 µg/ml MMP (lateral flow) [1]: 1610 reader units

MMP3 (Enzo)
reader value at 0.5 µg/ml MMP (lateral flow) [1]: 336 reader units

MMP10 (Enzo)
reader value at 0.5 µg/ml MMP (lateral flow) [1]: 444 reader units

MMP9 (Enzo)
reader value at 0.5 µg/ml MMP (lateral flow) [1]: 3840 reader units

active MMP-9 (Alere San Diego)
Reference assay read-out at 0 ng/ml MMP9 (blank) [2]: 3820
Reference assay read-out at 3.90625 ng/ml MMP9 [2]: 7600
Reference assay read-out at 7.8125 ng/ml MMP9 [2]: 13100
Reference assay read-out at 15.625 ng/ml MMP9 [2]: 31300
Reference assay read-out at 31.25 ng/ml MMP9 [2]: 62300
Reference assay read-out at 62.5 ng/ml MMP9 [2]: 113000
Reference assay read-out at 125 ng/ml MMP9 [2]: 163000
Reference assay read-out at 250 ng/ml MMP9 [2]: 204000
OD405 at 0.39 ng/ml MMP9 (ELISA, streptavidin plate, CF1522-AP) [1]: 0.14 OD405
OD405 at 0.78 ng/ml MMP9 (ELISA, streptavidin plate, CF1522-AP) [1]: 0.14 OD405
OD405 at 1.56 ng/ml MMP9 (ELISA, streptavidin plate, CF1522-AP) [1]: 0.14 OD405
OD405 at 3.13 ng/ml MMP9 (ELISA, streptavidin plate, CF1522-AP) [1]: 0.13 OD405
OD405 at 6.25 ng/ml MMP9 (ELISA, streptavidin plate, CF1522-AP) [1]: 0.17 OD405
OD405 at 12.50 ng/ml MMP9 (ELISA, streptavidin plate, CF1522-AP) [1]: 0.18 OD405
OD405 at 25.00 ng/ml MMP9 (ELISA, streptavidin plate, CF1522-AP) [1]: 0.27 OD405
OD405 at 50.00 ng/ml MMP9 (ELISA, streptavidin plate, CF1522-AP) [1]: 0.5 OD405
Ultimate ELTABA reader value at 3.90625 ng/ml MMP9 (lateral flow) [1]: 413 reader units
Ultimate ELTABA reader value at 7.8125 ng/ml MMP9 (lateral flow) [1]: 524 reader units
Ultimate ELTABA reader value at 15.625 ng/ml MMP9 (lateral flow) [1]: 882 reader units
Ultimate ELTABA reader value at 31.25 ng/ml MMP9 (lateral flow) [1]: 2030 reader units
Ultimate ELTABA reader value at 62.5 ng/ml MMP9 (lateral flow) [1]: 3830 reader units
Ultimate ELTABA reader value at 125 ng/ml MMP9 (lateral flow) [1]: 5580 reader units
Ultimate ELTABA reader value at 250 ng/ml MMP9 (lateral flow) [1]: 6220 reader units
detectable limit for MMP-9 (lateral flow, sample volume 75 µl) [1]: approximately 4 ng/ml
reader value at 0.9765625 ng/ml MMP9 (lateral flow) [1]: 338 reader units
reader value at 0.98 ng/ml MMP9 (lateral flow) [1]: 338 reader units
reader value at 1.95 ng/ml MMP9 (lateral flow) [1]: 343 reader units
reader value at 1.953125 ng/ml MMP9 (lateral flow) [1]: 343 reader units
reader value at 3.90625 ng/ml MMP9 (lateral flow) [1]: 413 reader units
reader value at 3.91 ng/ml MMP9 (lateral flow) [1]: 413 reader units
reader value at 7.81 ng/ml MMP9 (lateral flow) [1]: 524 reader units
reader value at 7.8125 ng/ml MMP9 (lateral flow) [1]: 524 reader units
reader value at 15.625 ng/ml MMP9 (lateral flow) [1]: 882 reader units
reader value at 15.63 ng/ml MMP9 (lateral flow) [1]: 882 reader units
reader value at 31.25 ng/ml MMP9 (lateral flow) [1]: 2030 reader units
reader value at 62.5 ng/ml MMP9 (lateral flow) [1]: 3830 reader units
reader value at 62.50 ng/ml MMP9 (lateral flow) [1]: 3830 reader units
reader value at 125 ng/ml MMP9 (lateral flow) [1]: 5580 reader units
reader value at 250 ng/ml MMP9 (lateral flow) [1]: 6220 reader units
reader value at 500 ng/ml MMP9 (lateral flow) [1]: 6730 reader units
reader value at 1000 ng/ml MMP9 (lateral flow) [1]: 6770 reader units
sensitivity of the MMP9 standard curves (ELISA and lateral flow) [1]: sensitivity down to 4 ng/ml

MMP8 (Enzo)
reader value at 0.5 µg/ml MMP (lateral flow) [1]: 1140 reader units
